# B1: activatable masked anti-CTLA4 antibody: 9D9 masked with CNLIVEGHC via MMP2/7/9 cleavable linker; light chain SEQ ID NO:238, heavy chain SEQ ID NO:319 (antibody)
# heavy: EAKLQESGPVLVKPGASVKMSCKASGYTFTDYYMNWVKQSHGKSLEWIGVINPYNGDTSYNQKFKGKATLTVDKSSSTAYMELNSLTSEDSAVYYCARYYGSWFAYWGQGTLITVSSAKTTAPSVYPLAPVCGDTTGSSVTLGCLVKGYFPEPVTLTWNSGSLSSGVHTFPAVLQSDLYTLSSSVTVTSSTWPSQSITCNVAHPASSTKVDKKIEPRGPTIKPCPPCKCPAPNLLGGPSVFIFPPKIKDVLMISLSPIVTCVVVDVSEDDPDVQISWFVNNVEVHTAQTQTHREDYNSTLRVVSALPIQHQDWMSGKEFKCKVNNKDLPAPIERTISKPKGSVRAPQVYVLPPPEEEMTKKQVTLTCMVTDFMPEDIYVEWTNNGKTELNYKNTEPVLDSDGSYFMYSKLRVEKKNWVERNSYSCSVVHEGLHNHHTTKSFSRTPGK
# light: ACNLIVEGHCGGSVPLSLYSGGGDIVMTQTTLSLPVSLGDQASISCRSSQSIVHSNGNTYLEWYLQKPGQSPKLLIYKVSNRFSGVPDRFSGSGSGTDFTLKISRVEAEDLGVYYCFQGSHVPYTFGGGTKLEIKRADAAPTVSIFPPSSEQLTSGGASVVCFLNNFYPKDINVKWKIDGSERQNGVLNSWTDQDSKDSTYSMSSTLTLTKDEYERHNSYTCEATHKTSTSPIVKSFNRNEC
# What was measured:
# MC38 tumors [1] = assay: MC38 tumor eradication and T cell population analysis (Example 4A); type: in vivo, C57Bl/6 mice
# Description: C57Bl/6 mice with 50-100 mm^3 MC38 tumors were administered intraperitoneally a single dose of 200 μg of IgG2a control (BioXcel), parental anti-CTLA4 antibody reactive to murine CTLA4 (9D9.IgG2a, light chain comprising SEQ ID NO:237, heavy chain comprising SEQ ID NO:319), activatable masked anti-CTLA4 antibody reactive to murine CTLA4 (light chain comprising SEQ ID NO:238, heavy chain comprising SEQ ID NO:319), masked anti-CTLA4 antibody 1005 reactive to murine CTLA4 (light chain comprising SEQ ID NO:240, heavy chain comprising SEQ ID NO:319), or anti-CTLA4 antibody 1 cross-reactive with human CTLA4 and murine CTLA4 (light chain comprising SEQ ID NO:327, heavy chain comprising SEQ ID NO:366). Body weight and tumor size were measured biweekly.
# C57Bl/6 mice with 50-100 mm^3 MC38 tumors were dosed with three […] doses on day 1, 4, and 8 with IgG2a control (BioXcel), parental anti-CTLA4 antibody (9D9.IgG2a, light chain comprising SEQ ID NO:237, heavy chain comprising SEQ ID NO:319 masked anti-CTLA4 antibody 2 (light chain comprising SEQ ID NO:238, heavy chain comprising SEQ ID NO:319), masked anti-CTLA4 antibody 1005 (light chain comprising SEQ ID NO:240, heavy chain comprising SEQ ID NO:319), or anti-CTLA4 antibody 1 cross-reactive with human CTLA4 and murine CTLA4 (light chain comprising SEQ ID NO:327, heavy chain comprising SEQ ID NO:366). On day 9, mice were sacrificed and tumors were dissociated using gentleMACS™ protocol “Tumor Dissociation Kit” (Milteni) and filtered through a 70 micron cell strainer and rinsed twice in PBS/2.5% FBS buffer to remove enzymatic buffer. […] and spleen cells were dissociated by gently grinding the tissue across a mesh. Red blood cells were lysed with ACK buffer (Thermo Fisher) prior to staining of the cells. Staining of cells was with fluorescently labeled anti-CD45 (BioLegend), anti-CD3 (BioLegend), anti-CD4 (BioLegend), anti-CD8 (BD Biosciences), anti-CD25 (BioLegend). Prior to staining with anti-FoxP3 (eBioscience), and anti-Ki67 (eBioscience) the cells were permeabilized. Stained cells were analyzed by fluorescent activate cell sorting (FACS) for the percentages of CD4+, CD8+, and CD25 Foxp3+(Tregs) cells of the live (Live/Dead Aqua purchased from Life) CD45 positive cells, as well as the percentage of these three cell populations that were Ki67 positive, a marker of cell proliferation.
# MC38 tumors [2] = assay: MC38 mouse colorectal carcinoma model, tumor and Treg analysis (Example 4B); type: in vivo, C57BL/6 mice
# Description: The effects of activatable masked anti-CTLA4 antibodies on tumor growth as well as immune parameters in the tumor and in the periphery were investigated using a MC38 mouse colorectal carcinoma model, previously shown to respond to treatment with the 9D9 antibody. See Peggs K. S. et al., J Exp Med., 206:1717-1725, (2009) and Selby M. J., et al., Cancer Immunol Res., 1:32-42, (2013).
# To assess anti-tumor efficacy, antibodies formulated in PBS were administered intraperitoneally (i.p.) on day 1 post-randomization at […] per dose in a volume of ≤250 μL. Tumor volumes were determined twice weekly. All mice were monitored individually and sacrificed upon either tumor volume reaching 1500 mm3 or 45 days post-randomization. To assess biological function of antibodies on regulatory T cells (Tregs) by FACS analysis as described below, tumor-bearing mice were administered antibody intraperitoneally on days 1, 4, and 8 post-randomization at […] per dose in a volume of ≤250 μL. The control antibody was muIgG2a (BioXcell). All mice were sacrificed on day 9; tumor and spleen were harvested for FACS analysis.
# Mouse tumor samples were dissociated according to standard protocol by Tumor Dissociation Kit (gentleMACS) and passed through a 70 μm cell strainer. Spleen samples were dissociated with the back of a syringe in a 70 μm cell strainer. Red blood cells were lysed with ACK buffer (Lonza). Final cell suspensions were washed and resuspended in Staining Buffer (PBS pH 7.4, 2.5% FBS, 0.09% NaN3) at 2×10^7 cells/mL. Cells were treated with Mu Trustain fcX (BioLegend) to block Fc receptors prior to being stained with antibodies against CD45 (BioLegend), CD3 (BioLegend), CD4 (BioLegend), CD8 (BD Biosciences), CD25 (BioLegend), and Live/Dead Aqua (ThermoFisher). For intracellular staining, cells were fixed, permeabilized, and stained with antibodies against FoxP3 (eBioscience) and Ki-67 (eBioscience). Single color stains and FMOs were run for gating purposes.
# murine CTLA4-Fc = biological target: T1, murine CTLA4-Fc (Mus musculus, UniProt P09793); assay: ELISA binding to murine CTLA4-Fc, with MMP2 cleavage (Example 3A); details: MMP2, 37° C. overnight
# T1 construct: purchased R&D Systems
# Description: ELISA plates were coated overnight in TBS with murine CTLA4-Fc (R&D Systems) and then washed with TBS with 0.05% Tween 20, and blocked with 1% BSA in PBS followed by washing with TBS with Tween 20. Dilutions of parental anti-CTLA4 antibodies and masked anti-CTLA4 antibodies in PBS were allowed to bind to CTLA4 for 60 minutes before washing with TBS Tween 20. Binding was detected with anti-muKappa-HRP (Abcam) and Super Signal Pico Chemiluminescent Substrate. Masked ratio was determined from the EC50 precleavage masked anti-CTLA4 antibody to the EC50 for parental anti-CTLA4 antibody.
# Parental anti-CTLA4 antibodies and masked anti-CTLA4 antibodies were incubated with 6 nM of MMP2 (R&D Systems) in 150 mM NaCl, 50 mM Tris, pH 7.5, 10 mM CaCl2, 0.02% NP-40) at 37° C. overnight. Antibody dilutions were tested for binding to murine CTLA4-Fc by the ELISA described above and by reduced-SDS-PAGE analysis, using “Any Kd Stain-Free pre-cast polyacrylamide gels” (Bio-Rad).
# [3] = biological target: murine CTLA4 (muCTLA4hsIgG protein); assay: Low density antigen binding ELISA, with MMP2 activation (Example 3B)
# Description: All ELISA were performed in a manner substantially similar to the description below or generally consistent with methods known in the art. Polysterene 96-well microplates (Thermo Fisher Scientific) were coated with 3 ng muCTLA4hsIgG protein (Abcam) per well and stored overnight at 4° C. Plates were washed with 0.1% Tween in TBS (TBS-T), blocked with 1% BSA (Fisher) in PBS for 2 hours at 4° C., and washed with TBS-T. Serial dilutions of tested antibody in 0.05% Tween+1% BSA in PBS (PBS-TB) were added to the plate and incubated at room temperature for 1 hour. After washing with TBS-T, HRP-conjugated goat anti-mouse Kappa light chain antibody (Abcam) diluted 1:4000 in PBS-TB was applied to the wells and incubated at room temperature for 1 hour. Plates were washed with TBS-T, chemiluminescent HRP substrate was applied to plate, and luminescence was recorded using a spectrophotometer (Synergy HT, BioTek). Data was analyzed with GraphPad Prism, version 7.02.
# Parental anti-CTLA4 antibodies, masked anti-CTLA4 antibodies, and non-cleavable masked anti-CTLA4 antibodies were each diluted to 1 μM solution in cleavage buffer (150 mM NaCl; 50 mM Tris, pH 7.5; 10 mM CaCl2; 0.02% NP-40). Recombinant MMP2 (R&D Systems) activated with 1 mM p-aminophenylmercuric acetate […] for 1 hour at 37° C. was added to each antibody solution to a final concentration of 4 nM and incubated overnight at 37° C. […]
# [4] = multi-dose, compared to parental antibody (9D9.IgG2a)
# murine CTLA4 (muCTLA4hsIgG protein), sequence (P09793 36-161 limits assumed): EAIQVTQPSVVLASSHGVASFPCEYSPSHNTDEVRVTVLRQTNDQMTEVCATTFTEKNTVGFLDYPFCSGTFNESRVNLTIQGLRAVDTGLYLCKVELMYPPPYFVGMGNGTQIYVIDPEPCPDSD
# T1 sequence (P09793 with tags, fused parts or gaps limits assumed): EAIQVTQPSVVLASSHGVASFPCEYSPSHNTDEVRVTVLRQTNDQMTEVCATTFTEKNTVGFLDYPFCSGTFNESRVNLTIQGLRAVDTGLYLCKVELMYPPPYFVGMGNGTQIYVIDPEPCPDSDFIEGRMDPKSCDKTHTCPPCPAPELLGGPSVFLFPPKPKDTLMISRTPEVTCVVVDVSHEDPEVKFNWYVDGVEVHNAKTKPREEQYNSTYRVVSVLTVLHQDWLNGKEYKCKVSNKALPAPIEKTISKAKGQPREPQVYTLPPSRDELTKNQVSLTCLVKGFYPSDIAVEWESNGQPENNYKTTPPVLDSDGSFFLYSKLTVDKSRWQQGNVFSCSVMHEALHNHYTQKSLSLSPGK
molecule,measurement,setting,value
B1,"proliferation of CD4+ cells in the periphery (spleen), % Ki67+",MC38 tumors [1]; [4],reduced proliferation
same,"proliferation of CD8+ T cells in the periphery (spleen), % Ki67+",MC38 tumors [1]; [4],reduced proliferation
same,tumor volume,MC38 tumors [1]; single dose of 200 μg intraperitoneally,equivalent efficacy in reducing tumor volume
same,regulatory T lymphocytes (Tregs) population in the tumor,"MC38 tumors [1]; three doses on day 1, 4, and 8, day 9",preferentially depleted
same,proliferating (Ki67+ FOXP3+) Tregs in the spleens,"MC38 tumors [2]; doses on days 1, 4, and 8, 24 hours after last dose",marginal increases
same,intratumoral Treg abundance,"MC38 tumors [2]; doses on days 1, 4, and 8, 24 hours after last dose, flow cytometry",as effective in reducing Tregs as parental anti-CTLA4 antibody
same,growth of subcutaneously implanted MC38 tumors,MC38 tumors [2]; i.p. on day 1 post-randomization,induced tumor regression
same,binding to murine CTLA4 after protease activation,murine CTLA4-Fc,fully restored binding
same,EC50,[3]; treated with recombinant MMP2,290 ± 30 pM
same,fold lower binding to murine CTLA4 as compared to parental anti-CTLA4 antibody,"[3]; without protease, listed as Masked 9D9",approximately 156 fold

# — patent US20220073613A1, “ACTIVATABLE MASKED ANTI-CTLA4 BINDING PROTEINS” (Xilio Development, Inc., priority 2018, published 2022)
